Experimental findings from article PMC11452484 (Nature Communications, 2024) are described below.

The data set deals with the molecule itself. Put plainly: cryo-EM structure.

B1: G. sulfurreducens SPARSA complex (short pAgo/Sir2-APAZ heterodimer) (complex)
chain 1: not shown
chain 2: MDVLTDNEFYQHYLQNSQHMMWFLGAGTSRSAGLPTASDIIWDLKHRYYCLHENQDYQKHDINNHAIKSKIQSYMDSKGFPLQWSPEEYSFYFELVFRDDYEAQRKYLLEALASRKVSLNIGHRVLAALLEMNQTKVVFTTNFDDVIETAFSDISGKHLSVYHLEGSYAALSALNTEAFPIYAKIHGDFRYQKIKNLTPDLQTNDREIHKCFLAAAIRFGLVVSGYSGRDENVMTMLRAAIDQNNAFPHGLYWTVPSISKSEPAVQDLITYAQGKGVRAYLVETGTFDEMLSKIWRQVKDKPAAIDAKVRTARVCPVSIPLPGPGKSFPALRTNALPVVTQSIRCGVVTLASPITFSELKERISQKSPKALLTYTEKVLFLGGEPEIRKIFSNDEINSIGQYYIDEIAQSVAASTFLKSFVEEAILTALLREKPILHRVRHRTHYAVIPNASAKDDRFLDLRKAVGFKGDLGYITGNVTNAKELSWAEAVSIRLEERGGKLWIMLKPEIWIKPLDRREEATDFIRSRRRYRFNQCSYQILDAWIKILFGSIGGGGTVNISCFPDAEFKAEFEIGTRTAFSLGVGYGR
In general, stoichiometry N refers to a count of units in the complex or per binding partner. B1: the “stoichiometry N” value is 4.

B2: Geobacter sulfurreducens Sir2-APAZ (natural protein, UniProt Q74DF6 1-587, looked up)
chain: MDVLTDNEFYQHYLQNSQHMMWFLGAGTSRSAGLPTASDIIWDLKHRYYCLHENQDYQKHDINNHAIKSKIQSYMDSKGFPLQWSPEEYSFYFELVFRDDYEAQRKYLLEALASRKVSLNIGHRVLAALLEMNQTKVVFTTNFDDVIETAFSDISGKHLSVYHLEGSYAALSALNTEAFPIYAKIHGDFRYQKIKNLTPDLQTNDREIHKCFLAAAIRFGLVVSGYSGRDENVMTMLRAAIDQNNAFPHGLYWTVPSISKSEPAVQDLITYAQGKGVRAYLVETGTFDEMLSKIWRQVKDKPAAIDAKVRTARVCPVSIPLPGPGKSFPALRTNALPVVTQSIRCGVVTLASPITFSELKERISQKSPKALLTYTEKVLFLGGEPEIRKIFSNDEINSIGQYYIDEIAQSVAASTFLKSFVEEAILTALLREKPILHRVRHRTHYAVIPNASAKDDRFLDLRKAVGFKGDLGYITGNVTNAKELSWAEAVSIRLEERGGKLWIMLKPEIWIKPLDRREEATDFIRSRRRYRFNQCSYQILDAWIKILFGSIGGGGTVNISCFPDAEFKAEFEIGTRTAFSLGVGYGR
With B2, the binding result is “binds”.
